{"source": "patent US20200399308A1", "about": "“COMPOUNDS AND METHODS FOR ELICITING ANTIMICROBIAL ACTIVITY” (Technion Research & Development Foundation Limited, priority 2018, published 2020)", "key": {"[1]": {"test_system": "Escherichia coli 25922", "assay": "Serum survival assay", "assay_type": "cell-based", "conditions": "mouse serum; 13 μM lactoferrin with 10 μM Compound B", "method": "(§1) Serum survival assays were performed using fresh serum from normal mice or human serum from the Israel Blood Bank; samples were pooled and stored in aliquots at −80° C. until use. Time-dependent killing was determined in a final volume of 125 μL consisting of 112.5 μL of serum containing either a tested compound, egg white lysozyme (Amresco), lactoferrin (Vivinal lactoferrin FD; DMV International, Delhi, N.Y.), anti-murine C5/C5a antibody (25 μg/mL; ab194637; Abcam), or their combination, as specified. These solutions were supplemented with 12.5 μL of bacteria suspended in PBS at the desired concentration. After the specified time points of exposure, cultures were subjected to serial 10-fold dilutions in saline (0.85% NaCl) and plated for bacterial enumeration after incubation at 37° C. for an additional 24 hours. In heat-treated experiments, sera were incubated at 56° C. for 30 minutes for protein inactivation. Data were obtained from 3 independent experiments."}, "[2]": {"test_system": "Klebsiella pneumoniae 1287", "assay": "Serum survival assay", "assay_type": "cell-based", "conditions": "mouse serum; 13 μM lactoferrin with 10 μM Compound B", "method": "as §1"}}, "data": [{"molecule": "lactoferrin: host defense antimicrobial protein (Vivinal lactoferrin FD) (protein, UniProt P24627 20-708, looked up) Lactotransferrin: APRKNVRWCTISQPEWFKCRRWQWRMKKLGAPSITCVRRAFALECIRAIAEKKADAVTLDGGMVFEAGRDPYKLRPVAAEIYGTKESPQTHYYAVAVVKKGSNFQLDQLQGRKSCHTGLGRSAGWIIPMGILRPYLSWTESLEPLQGAVAKFFSASCVPCIDRQAYPNLCQLCKGEGENQCACSSREPYFGYSGAFKCLQDGAGDVAFVKETTVFENLPEKADRDQYELLCLNNSRAPVDAFKECHLAQVPSHAVVARSVDGKEDLIWKLLSKAQEKFGKNKSRSFQLFGSPPGQRDLLFKDSALGFLRIPSKVDSALYLGSRYLTTLKNLRETAEEVKARYTRVVWCAVGPEEQKKCQQWSQQSGQNVTCATASTTDDCIVLVLKGEADALNLDGGYIYTAGKCGLVPVLAENRKSSKHSSLDCVLRPTEGYLAVAVVKKANEGLTWNSLKDKKSCHTAVDRTAGWNIPMGLIVNQTGSCAFDEFFSQSCAPGADPKSRLCALCAGDDQGLDKCVPNSKEKYYGYTGAFRCLAEDVGDVAFVKNDTVWENTNGESTADWAKNLNREDFRLLCLDGTRKPVTEAQSCHLAVAPNHAVVSRSDRAAHVKQVLLHQQALFGKNGKNCPDKFCLFKSETKNLLFNDNTECLAKLGGRPTYEEYLGTEYVTAIANLKKCSTSPLLEACAFLTR", "values": [{"measurement": "sensitization by Compound B to lactoferrin", "setting": "[1]", "result": "no significant sensitization"}, {"measurement": "sensitization by Compound B to lactoferrin", "setting": "[2]", "result": "no significant sensitization"}]}]}
